The values that follow are results of earlier work, collected in paper PMC4379523.

In the series the target is ribosomal protein L3 N-terminal peptide (L3Δ21) 1-21 (Saccharomyces cerevisiae) (UniProt P14126). As to the kind of experiment: SPR. On the technique in general: Surface plasmon resonance follows binding to a sensor surface in real time, without labels.
UniProt P14126, sequence (P14126 1-21, stated change not applied): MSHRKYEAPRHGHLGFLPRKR

The Kd is the constant that tells how readily two partners part at equilibrium. For “Pokeweed antiviral protein (PAP) (from UniProt P10297)”, the Kd was 24.8 nM.
